# Source: US8492329B2, “Bioactive peptides and methods of using same” (Compugen Ltd., priority 2007, dated 2013)
# No end group written: not given here.
# What was measured:
# [1] = biological target: T1, LGR8 (RXFP2) (Homo sapiens, UniProt Q8WXD0); assay: Competition with Europium labelled INSL3 binding to HEK-293T cells expressing LGR8; parameters: expressed in transfected cells; conditions: LGR8 HEK-293T, FIG. 10; for effect on binding of Europium-INSL3: 0.01 nM-10 μM
# Method: The ability of Peptides P74C13V (SEQ ID NO: 10) and P59C13V (SEQ ID NO: 6) to compete with the binding of known ligands to LGR7 or LGR8 was tested by testing the ability of P74C13V (SEQ ID NO: 10) and P59C13V (SEQ ID NO: 6) to compete with the binding of Europium labelled H2 Relaxin or INSL3 (manufactured by the H. Florey institute) to stable HEK-293T cell lines expressing LGR7 or LGR8 respectively.
# HEK-293T cell lines expressing LGR8 (RXFP2) were treated with Europium labeled INSL3 (manufactured by the H. Florey institute). The cells were then treated with decimal increasing concentrations (0.01 nM, 0.1 nM, 1 nM, 10 nM, 100 nM, 1 μM, 10 μM) of un-labeled INSL3 (as a positive control) and the tested peptides P59C13V (P59) (SEQ ID NO: 6), P59C13V-Amide (P59-Amide) (SEQ ID NO: 5), P59-S-Amide (P59S) (SEQ ID NO: 1) and P74C13V (P74) (SEQ ID NO: 10). The binding results are shown as a percentage of specific binding of the radioactive test INSL3 (where 100% is the baseline radiation level). […] This means that the binding affinity of the Eur-INSL3 was increased by binding/activity of the P59C13V (P59) (SEQ ID NO: 6) peptide on the LGR8 receptor.
# [2] = biological target: T1, LGR8 (RXFP2); assay: pCRE-β-gal reporter assay in Forskolin-treated CHO-K1 cells transiently transfected with LGR8; format: cell-based; parameters: expressed in transfected cells; host or cells: CHO-K1 (transient); conditions: 5 uM Forskolin, FIG. 8A-B
# Method: The ability of P74C13V (P74) (SEQ ID NO: 10) and P59C13V (P59) and P59C13V-Amide (P59-Amide) (SEQ ID NO: 6 and 5 respectively) to activate LGR7 (RXFP1) and LGR8 (RXFP2) was further tested by testing the ability of these peptides to influence cAMP activity induced by 5 μM Forskolin in CHO-K1 cells transiently transfected with LGR7/pCRE-β-gal or LGR8/pCRE-β-gal as compared to H2 relaxin and INSL3 respectively.
# LGR8 transfected CHO-K1 cells were treated with 5 uM of Forskolin to stimulate cAMP. The cells were then challenged with increasing doses of INSL3 (as positive control), P74C13V (P74) (SEQ ID NO: 10), P59C13V with (P59-Amide) and without (P59) amide (SEQ ID NO: 5 and 6, respectively) and P59S-Amide (P59-S) (SEQ ID NO: 1). […] The results are presented as a percentage of Forskolin activity at various concentrations of the peptide (logarithmic scale). Each point represents three unrelated repeats for each experiment.
# T1 sequence (Q8WXD0 whole entry): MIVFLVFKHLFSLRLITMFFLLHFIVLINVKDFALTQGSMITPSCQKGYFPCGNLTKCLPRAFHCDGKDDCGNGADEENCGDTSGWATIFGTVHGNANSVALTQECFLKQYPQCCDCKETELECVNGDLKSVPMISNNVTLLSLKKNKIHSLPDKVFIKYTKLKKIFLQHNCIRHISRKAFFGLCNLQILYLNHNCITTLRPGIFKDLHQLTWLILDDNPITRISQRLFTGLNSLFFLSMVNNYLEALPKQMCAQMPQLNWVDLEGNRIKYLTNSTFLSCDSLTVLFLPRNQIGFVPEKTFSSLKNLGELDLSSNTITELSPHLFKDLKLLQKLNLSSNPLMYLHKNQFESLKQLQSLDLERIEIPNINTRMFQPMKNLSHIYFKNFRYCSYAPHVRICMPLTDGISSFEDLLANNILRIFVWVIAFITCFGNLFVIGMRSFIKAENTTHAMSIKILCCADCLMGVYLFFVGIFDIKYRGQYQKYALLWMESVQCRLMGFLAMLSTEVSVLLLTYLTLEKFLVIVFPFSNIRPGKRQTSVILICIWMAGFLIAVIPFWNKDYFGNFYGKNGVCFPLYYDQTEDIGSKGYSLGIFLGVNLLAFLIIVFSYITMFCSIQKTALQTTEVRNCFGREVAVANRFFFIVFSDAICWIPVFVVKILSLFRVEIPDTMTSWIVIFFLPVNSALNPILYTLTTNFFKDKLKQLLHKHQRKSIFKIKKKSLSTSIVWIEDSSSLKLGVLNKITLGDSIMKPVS
Substance,effect on binding of Europium-INSL3 [1],"specific binding of Europium-INSL3 ([1]; at 1 nM and higher concentrations, 100% is baseline) [%]",CRE activation pattern relative to Forskolin [2]
GQKGQVGPPGAAVRRAYAAFSV [Peptide P59C13V],positive cooperative or allosteric effect,~125,dual activation pattern effect
AYAAFSV-Amide (AYAAFSV-NH2) [Peptide P59-S-Amide],less apparent,,
GQKGQVGPPGAAVRRAYAAFSV-Amide (GQKGQVGPPGAAVRRAYAAFSV-NH2) [P59C13V-Amide],less apparent,,slight activation pattern
GQKGQVGPPGAAVRRAYAAFSVGRRAYAAFSV-OH [Peptide P74C13V],less apparent,,bell-shaped activation pattern
